Source: patent publication US7144988B2, “Method of structure-based drug design to create or improve modulators of IL-1 activity which bind to the interleukin-1 type 1 receptor” (Array Biopharma, Inc., priority 2002, dated 2006)

Molecular target: T1, IL1R2D (modified IL-1 type 1 receptor, amino acids 18 to 222) (Homo sapiens, UniProt P14778)
T1 construct: made in house; host or cells: Hi5 insect cells, recombinant baculovirus (made in Sf9)
T1 sequence (P14778 18-222): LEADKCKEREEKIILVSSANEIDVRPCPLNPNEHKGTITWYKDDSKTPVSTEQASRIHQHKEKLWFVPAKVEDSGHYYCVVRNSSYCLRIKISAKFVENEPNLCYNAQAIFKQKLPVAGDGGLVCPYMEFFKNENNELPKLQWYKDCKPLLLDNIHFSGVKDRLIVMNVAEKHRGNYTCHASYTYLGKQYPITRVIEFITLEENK
Experiment: Binding affinity of ligands to modified IL-1 type 1 receptor IL1R2D

Kd: ≥ 1000 nM
Substance: IL-1ra: IL-1 receptor antagonist protein; competes with IL-1α and β for receptor binding
